# Tests used:
# [1] = target: CaMKK1_(67–480) D293A, unphosphorylated (human) (UniProt Q8N5S9); assay: AUC; sedimentation velocity of CaMKKs alone at two concentrations (CaMKK1 at 10 μM); 50 mM Tris–HCl pH 7.5, 150 mM NaCl, 1 mM TCEP; 20°C, 42,000 rpm; monomer to dimer
# [2] = target: dansyl-labeled calmodulin (DANS-CaM), Ca2+-bound (rat) (UniProt P0DP29); assay: fluorescence polarisation; 2 μM DANS-CaM titrated with CaMKK (30 μM and binary dilution series), 1 h incubation; 10 mM HEPES-NaOH pH 7.4, 150 mM NaCl, 1 mM CaCl2, 0.1% Tween 20, 0.1% BSA; one-site-binding model
# [3] = target: dansyl-labeled calmodulin (DANS-CaM), Ca2+-bound (rat) (UniProt P0DP29); assay: fluorescence polarisation; as a1 but with 60 μM 14-3-3γ present: 2 μM DANS-CaM titrated with CaMKK (30 μM and binary dilution series), 1 h incubation; 10 mM HEPES-NaOH pH 7.4, 150 mM NaCl, 1 mM CaCl2, 0.1% Tween 20, 0.1% BSA; one-site-binding model
stoichiometry N [1],Kd [2],Kd [3],Substance
2,,,"CaMKK1_(67–480) D293A, unphosphorylated (from UniProt Q8N5S9 67-480) (domain or fragment)"
,0.56 µM,0.51 µM,"CaMKK2(93-517) D330A, unphosphorylated (from UniProt Q96RR4 93-517) (domain or fragment)"
,3.55 µM,> 10.8 µM,pCaMKK2: CaMKK2(93-517) D330A phosphorylated by PKA at four sites (from UniProt Q96RR4 93-517) (domain or fragment)

# Source: article PMC10588359
